The labels stand for the following.
T1: recombinant Factor VIII (CSL627, rVIII-SingleChain) (Homo sapiens (Human), UniProt P00451 20-2351)
T1 construct: also called FVIII
T1 sequence: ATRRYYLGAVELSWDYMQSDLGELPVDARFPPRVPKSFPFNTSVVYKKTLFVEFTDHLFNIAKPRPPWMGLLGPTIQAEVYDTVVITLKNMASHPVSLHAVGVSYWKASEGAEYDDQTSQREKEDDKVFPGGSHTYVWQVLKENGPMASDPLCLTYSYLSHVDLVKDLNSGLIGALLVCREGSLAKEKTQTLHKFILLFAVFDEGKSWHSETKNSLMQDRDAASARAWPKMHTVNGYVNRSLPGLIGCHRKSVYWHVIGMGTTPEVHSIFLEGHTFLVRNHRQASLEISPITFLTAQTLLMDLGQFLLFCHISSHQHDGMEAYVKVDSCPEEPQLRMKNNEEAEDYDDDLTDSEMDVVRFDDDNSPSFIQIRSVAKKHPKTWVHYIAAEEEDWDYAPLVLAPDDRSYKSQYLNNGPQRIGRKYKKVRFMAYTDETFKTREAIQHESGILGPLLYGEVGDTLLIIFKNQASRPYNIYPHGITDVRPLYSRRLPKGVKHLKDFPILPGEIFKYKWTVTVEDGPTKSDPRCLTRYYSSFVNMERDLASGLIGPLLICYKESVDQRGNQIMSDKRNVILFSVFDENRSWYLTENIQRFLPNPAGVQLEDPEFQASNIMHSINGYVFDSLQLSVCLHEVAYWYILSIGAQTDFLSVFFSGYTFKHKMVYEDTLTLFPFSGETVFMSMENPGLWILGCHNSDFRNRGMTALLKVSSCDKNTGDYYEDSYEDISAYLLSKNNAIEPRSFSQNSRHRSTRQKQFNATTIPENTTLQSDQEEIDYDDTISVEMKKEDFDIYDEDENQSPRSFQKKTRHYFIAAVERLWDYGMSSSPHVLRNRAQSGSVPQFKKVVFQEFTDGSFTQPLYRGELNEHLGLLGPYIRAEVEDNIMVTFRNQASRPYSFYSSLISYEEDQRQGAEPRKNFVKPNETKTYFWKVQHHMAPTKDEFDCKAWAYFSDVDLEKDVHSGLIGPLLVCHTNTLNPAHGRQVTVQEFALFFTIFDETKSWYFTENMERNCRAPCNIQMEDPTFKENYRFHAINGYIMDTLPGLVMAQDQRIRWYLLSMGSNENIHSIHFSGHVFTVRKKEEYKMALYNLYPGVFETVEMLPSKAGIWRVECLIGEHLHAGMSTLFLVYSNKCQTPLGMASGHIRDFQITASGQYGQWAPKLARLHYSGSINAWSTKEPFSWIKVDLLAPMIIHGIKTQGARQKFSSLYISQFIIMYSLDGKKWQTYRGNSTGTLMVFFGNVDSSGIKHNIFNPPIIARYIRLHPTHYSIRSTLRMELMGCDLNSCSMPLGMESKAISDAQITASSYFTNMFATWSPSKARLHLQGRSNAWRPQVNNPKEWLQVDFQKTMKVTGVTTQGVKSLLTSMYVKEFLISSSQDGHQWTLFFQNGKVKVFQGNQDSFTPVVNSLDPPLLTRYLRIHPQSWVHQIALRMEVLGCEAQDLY

B1: Hu-vWF[764-1270]-8His S764P-K773S (other)
chain: PLSCRPPMVSLVCPADNLRAEGLECTKTCQNYDLECMSMGCVSGCLCPPGMVRHENRCVALERCPCFHQGKEYAPGETVKIGCNTCVCRDRKWNCTDHVCDATCSTIGMAHYLTFDGLKYLFPGECQYVLVQDYCGSNPGTFRILVGNKGCSHPSVKCKKRVTILVEGGEIELFDGEVNVKRPMKDETHFEVVESGRYIILLLGKALSVVWDRHLSISVVLKQTYQEKVCGLCGNFDGIQNNDLTSSNLQVEEDPVDFGNSWKVSSQCADTRKVPLDSSPATCHNNIMKQTMVDSSCRILTSDVFQDCNKLVDPEPYLDVCIYDTCSCESIGDCACFCDTIAAYAHVCAQHGKVVTWRTATLCPQSCEERNLRENGYECEWRYNSCAPACQVTCQHPEPLACPVQCVEGCHAHCPPGKILDELLQTCVDPEDCPVCEVAGRRFASGKKVTLNPSDPEHCQICHCDVVNLTCEACQEPGGLVVPPTDAPVSPTTLYVEDISEPPLHDFHHHHHHHH
B2: Hu-vWF[764-1270]-8His S764P-K773Y (other)
chain: PLSCRPPMVYLVCPADNLRAEGLECTKTCQNYDLECMSMGCVSGCLCPPGMVRHENRCVALERCPCFHQGKEYAPGETVKIGCNTCVCRDRKWNCTDHVCDATCSTIGMAHYLTFDGLKYLFPGECQYVLVQDYCGSNPGTFRILVGNKGCSHPSVKCKKRVTILVEGGEIELFDGEVNVKRPMKDETHFEVVESGRYIILLLGKALSVVWDRHLSISVVLKQTYQEKVCGLCGNFDGIQNNDLTSSNLQVEEDPVDFGNSWKVSSQCADTRKVPLDSSPATCHNNIMKQTMVDSSCRILTSDVFQDCNKLVDPEPYLDVCIYDTCSCESIGDCACFCDTIAAYAHVCAQHGKVVTWRTATLCPQSCEERNLRENGYECEWRYNSCAPACQVTCQHPEPLACPVQCVEGCHAHCPPGKILDELLQTCVDPEDCPVCEVAGRRFASGKKVTLNPSDPEHCQICHCDVVNLTCEACQEPGGLVVPPTDAPVSPTTLYVEDISEPPLHDFHHHHHHHH
B3: Hu-vWF[764-1270]-8His S764P-L765F (other)
chain: PFSCRPPMVKLVCPADNLRAEGLECTKTCQNYDLECMSMGCVSGCLCPPGMVRHENRCVALERCPCFHQGKEYAPGETVKIGCNTCVCRDRKWNCTDHVCDATCSTIGMAHYLTFDGLKYLFPGECQYVLVQDYCGSNPGTFRILVGNKGCSHPSVKCKKRVTILVEGGEIELFDGEVNVKRPMKDETHFEVVESGRYIILLLGKALSVVWDRHLSISVVLKQTYQEKVCGLCGNFDGIQNNDLTSSNLQVEEDPVDFGNSWKVSSQCADTRKVPLDSSPATCHNNIMKQTMVDSSCRILTSDVFQDCNKLVDPEPYLDVCIYDTCSCESIGDCACFCDTIAAYAHVCAQHGKVVTWRTATLCPQSCEERNLRENGYECEWRYNSCAPACQVTCQHPEPLACPVQCVEGCHAHCPPGKILDELLQTCVDPEDCPVCEVAGRRFASGKKVTLNPSDPEHCQICHCDVVNLTCEACQEPGGLVVPPTDAPVSPTTLYVEDISEPPLHDFHHHHHHHH
B4: Hu-vWF[764-1270]-8His S764P-K773W (other)
chain: PLSCRPPMVWLVCPADNLRAEGLECTKTCQNYDLECMSMGCVSGCLCPPGMVRHENRCVALERCPCFHQGKEYAPGETVKIGCNTCVCRDRKWNCTDHVCDATCSTIGMAHYLTFDGLKYLFPGECQYVLVQDYCGSNPGTFRILVGNKGCSHPSVKCKKRVTILVEGGEIELFDGEVNVKRPMKDETHFEVVESGRYIILLLGKALSVVWDRHLSISVVLKQTYQEKVCGLCGNFDGIQNNDLTSSNLQVEEDPVDFGNSWKVSSQCADTRKVPLDSSPATCHNNIMKQTMVDSSCRILTSDVFQDCNKLVDPEPYLDVCIYDTCSCESIGDCACFCDTIAAYAHVCAQHGKVVTWRTATLCPQSCEERNLRENGYECEWRYNSCAPACQVTCQHPEPLACPVQCVEGCHAHCPPGKILDELLQTCVDPEDCPVCEVAGRRFASGKKVTLNPSDPEHCQICHCDVVNLTCEACQEPGGLVVPPTDAPVSPTTLYVEDISEPPLHDFHHHHHHHH
B5: Hu-vWF[764-1270]-8His S764P-K773V (other)
chain: PLSCRPPMVVLVCPADNLRAEGLECTKTCQNYDLECMSMGCVSGCLCPPGMVRHENRCVALERCPCFHQGKEYAPGETVKIGCNTCVCRDRKWNCTDHVCDATCSTIGMAHYLTFDGLKYLFPGECQYVLVQDYCGSNPGTFRILVGNKGCSHPSVKCKKRVTILVEGGEIELFDGEVNVKRPMKDETHFEVVESGRYIILLLGKALSVVWDRHLSISVVLKQTYQEKVCGLCGNFDGIQNNDLTSSNLQVEEDPVDFGNSWKVSSQCADTRKVPLDSSPATCHNNIMKQTMVDSSCRILTSDVFQDCNKLVDPEPYLDVCIYDTCSCESIGDCACFCDTIAAYAHVCAQHGKVVTWRTATLCPQSCEERNLRENGYECEWRYNSCAPACQVTCQHPEPLACPVQCVEGCHAHCPPGKILDELLQTCVDPEDCPVCEVAGRRFASGKKVTLNPSDPEHCQICHCDVVNLTCEACQEPGGLVVPPTDAPVSPTTLYVEDISEPPLHDFHHHHHHHH
B6: Hu-vWF[764-1270]-8His S764P-L765A (other)
chain: PASCRPPMVKLVCPADNLRAEGLECTKTCQNYDLECMSMGCVSGCLCPPGMVRHENRCVALERCPCFHQGKEYAPGETVKIGCNTCVCRDRKWNCTDHVCDATCSTIGMAHYLTFDGLKYLFPGECQYVLVQDYCGSNPGTFRILVGNKGCSHPSVKCKKRVTILVEGGEIELFDGEVNVKRPMKDETHFEVVESGRYIILLLGKALSVVWDRHLSISVVLKQTYQEKVCGLCGNFDGIQNNDLTSSNLQVEEDPVDFGNSWKVSSQCADTRKVPLDSSPATCHNNIMKQTMVDSSCRILTSDVFQDCNKLVDPEPYLDVCIYDTCSCESIGDCACFCDTIAAYAHVCAQHGKVVTWRTATLCPQSCEERNLRENGYECEWRYNSCAPACQVTCQHPEPLACPVQCVEGCHAHCPPGKILDELLQTCVDPEDCPVCEVAGRRFASGKKVTLNPSDPEHCQICHCDVVNLTCEACQEPGGLVVPPTDAPVSPTTLYVEDISEPPLHDFHHHHHHHH
B7: Hu-vWF[764-1270]-8His S764P-K773T (other)
chain: PLSCRPPMVTLVCPADNLRAEGLECTKTCQNYDLECMSMGCVSGCLCPPGMVRHENRCVALERCPCFHQGKEYAPGETVKIGCNTCVCRDRKWNCTDHVCDATCSTIGMAHYLTFDGLKYLFPGECQYVLVQDYCGSNPGTFRILVGNKGCSHPSVKCKKRVTILVEGGEIELFDGEVNVKRPMKDETHFEVVESGRYIILLLGKALSVVWDRHLSISVVLKQTYQEKVCGLCGNFDGIQNNDLTSSNLQVEEDPVDFGNSWKVSSQCADTRKVPLDSSPATCHNNIMKQTMVDSSCRILTSDVFQDCNKLVDPEPYLDVCIYDTCSCESIGDCACFCDTIAAYAHVCAQHGKVVTWRTATLCPQSCEERNLRENGYECEWRYNSCAPACQVTCQHPEPLACPVQCVEGCHAHCPPGKILDELLQTCVDPEDCPVCEVAGRRFASGKKVTLNPSDPEHCQICHCDVVNLTCEACQEPGGLVVPPTDAPVSPTTLYVEDISEPPLHDFHHHHHHHH

The assay has as its target T1, recombinant Factor VIII (CSL627, …). The assay can be described thus: SPR, anti-His capture. How it is done: Binding kinetics were investigated by surface plasmon resonance using a Biacore 4000 biosensor at 37° C. Each mutant was captured from cell culture medium to a density of 40-150 RU on a CM-5 sensor chip pre-immobilised with anti-His antibody (14,000 RU). In an initial screening study, FVIII was injected over the captured mutants for 5 minutes at 1 nM and dissociation monitored for 5 minutes.
All sensorgrams were double referenced by subtraction of signals from a reference spot (containing only immobilised anti His antibody) and from a blank injection. Binding kinetics were determined by fitting the double referenced sensorgrams to a 1:1 kinetic model.
Consider B1, for which the equilibrium dissociation constant (Kd) amounted to 0.0142 nM, the koff turned out to be 0.000306 s⁻¹ and the kon was determined as 2.16e+07 M⁻¹ s⁻¹.

Consider B2, for which the Kd was determined as 0.0835 nM, the koff stood at 0.00136 s⁻¹ and the kon was found to be 1.63e+07 M⁻¹ s⁻¹.

On to B3, for which the Kd is 0.0373 nM, the off-rate constant (koff) turned out to be 0.000632 s⁻¹ and the on-rate constant (kon) was determined as 1.69e+07 M⁻¹ s⁻¹.

Take B4: the Kd stood at 0.257 nM, the koff came to 0.00321 s⁻¹ and the kon was found to be 1.25e+07 M⁻¹ s⁻¹.

On to B5, for which the Kd is 0.0101 nM, the koff came out at 0.000157 s⁻¹ and the kon worked out at 1.55e+07 M⁻¹ s⁻¹.

Take B6: the Kd stood at 0.906 nM, the koff came to 0.0278 s⁻¹ and the kon came to 3.07e+07 M⁻¹ s⁻¹.

For the molecule B7, the dissociation constant (Kd) was 0.016 nM, the koff worked out at 7.5e-05 s⁻¹ and the kon was 4.68e+06 M⁻¹ s⁻¹.

What is called Kd is a measure of binding affinity in units of concentration. Usually koff stands for the rate constant with which the complex falls apart. One may read the kon as the second-order rate constant of association.

These data come from US20190015483A1 (CSL BEHRING RECOMBINANT FACILITY, published 2019).
